From paper PMC5880071, “Self-sustained enzymatic cascade for the production of 2,5-furandicarboxylic acid from 5-methoxymethylfurfural” (Biotechnology for Biofuels, 2018) come the findings set out here.

Series [1] has as its target T1, UPO (unspecific peroxygenase), PaDa-I variant (Cyclocybe aegerita, UniProt B9W4V6, V100A/L110F/V118I/I291V/F354L).
T1 construct: gene APO1
Description: GC-MS product analysis (FFCA formed). Conditions: 1.5 mM MMFA, 5 µM UPO, 1.5 mM H2O2; ether cleavage. The class given is biochemical.

Substrate in series [2]: O=Cc1ccc(C=O)o1
Put plainly: purified protein. As to conditions: O2 co-substrate (air), sodium phosphate pH 7.0 (50 mM in Table 1, 100 mM in Methods), 25 °C.

Substrate in series [3]: COCc1ccc(C=O)o1
Description: purified protein. The class given is biochemical, Pleurotus eryngii. As to conditions: O2 co-substrate (air), sodium phosphate pH 7.0 (50 mM in Table 1, 100 mM in Methods), 25 °C.

Substrate in series [4]: O=Cc1ccc(CO)o1
Put plainly: purified protein. In kind it is biochemical, Pleurotus eryngii. As to conditions: O2 co-substrate (air), sodium phosphate pH 7.0 (50 mM in Table 1, 100 mM in Methods), 25 °C.

T1 sequence (B9W4V6 44-371 V100A/L110F/V118I/I291V/F354L): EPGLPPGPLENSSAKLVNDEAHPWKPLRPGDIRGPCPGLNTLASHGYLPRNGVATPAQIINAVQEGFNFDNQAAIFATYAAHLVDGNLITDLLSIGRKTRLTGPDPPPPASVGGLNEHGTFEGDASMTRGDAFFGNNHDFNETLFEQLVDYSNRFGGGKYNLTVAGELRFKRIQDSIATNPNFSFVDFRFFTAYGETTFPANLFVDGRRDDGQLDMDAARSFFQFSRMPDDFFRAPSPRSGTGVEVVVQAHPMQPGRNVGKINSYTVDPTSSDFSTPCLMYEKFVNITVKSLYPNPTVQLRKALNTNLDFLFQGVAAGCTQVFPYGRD

In the case of `COCc1ccc(C(=O)O)o1` [MMFA, 5-(Methoxymethyl)-2-furancarboxylic acid], the “GC-MS product analysis (FFCA formed)” value in series [1] was “UPO is indeed capable to cleave the ether bond of MMFA”.

B1: AAO (aryl-alcohol oxidase) (Pleurotus eryngii) (protein)
chain: ADFDYVVVGAGNAGNVVAARLTEDPDVSVLVLEAGVSDENVLGAEAPLLAPGLVPNSIFDWNYTTTAQAGYNGRSIAYPRGRMLGGSSSVHYMVMMRGSTEDFDRYAAVTGDEGWNWDNIQQFVRKNEMVVPPADNHNTSGEFIPAVHGTNGSVSISLPGFPTPLDDRVLATTQEQSEEFFFNPDMGTGHPLGISWSIASVGNGQRSSSSTAYLRPAQSRPNLSVLINAQVTKLVNSGTTNGLPAFRCVEYAEQEGAPTTTVCAKKEVVLSAGSVGTPILLQLSGIGDENDLSSVGIDTIVNNPSVGRNLSDHLLLPAAFFVNSNQTFDNIFRDSSEFNVDLDQWTNTRTGPLTALIANHLAWLRLPSNSSIFQTFPDPAAGPNSAHWETIFSNQWFHPAIPRPDTGSFMSVTNALISPVARGDIKLATSNPFDKPLINPQYLSTEFDIFTMIQAVKSNLRFLSGQAWADFVIRPFDPRLRDPTDDAAIESYIRDNANTIFHPVGTASMSPRGASWGVVDPDLKVKGVDGLRIVDGSILPFAPNAHTQGPIYLVGKQGADLIKADQ
Turning to B1, in “purified protein [2]”, the Km – broadly, the substrate concentration at which the rate is half of its maximum – worked out at 3.3 ± 0.2 mM; the kcat (in general, the maximal rate divided by the concentration of active sites) was determined as 0.523 s⁻¹; the kcat/Km (as a rule, the second-order rate constant that governs catalysis at low substrate concentration) worked out at 157 M⁻¹ s⁻¹. Moreover, in the series “purified protein [3]”, the Michaelis-Menten constant (Km) is recorded as 60.8 ± 5.5 mM, the kcat worked out at 0.263 ± 0.01 s⁻¹ and the kcat/Km is 5.83 ± 0.333 M⁻¹ s⁻¹. Further, in “purified protein [4]”, the Km turned out to be 1.6 ± 0.2 mM, the turnover number (kcat) was found to be 0.335 ± 0.01 s⁻¹ and the kcat/Km stood at 215 ± 20 M⁻¹ s⁻¹.
